Experiment [1] addresses Src family kinase 1 (SFK1) (Lytechinus pictus (endogenous in eggs and egg extract)). Nature of the experiment: FRET or BRET; time-resolved FRET by two-photon time-domain FLIM; L. pictus eggs three minutes post-fertilisation (T+3), fixed, labelled with anti-PLCγ-OG488 (donor) and anti-SFK1-Cy5 (acceptor); ROI whole egg or male pronucleus. In general terms: In BRET a luciferase serves as donor, and the signal depends on an acceptor being close.

For experiment [2] the target is unchanged. Nature of the experiment: FRET or BRET; time-resolved FRET by two-photon time-domain FLIM; unfertilised L. pictus eggs (T0), fixed, labelled with anti-PLCγ-OG488 (donor) and anti-SFK1-Cy5 (acceptor); FRET efficiency from donor lifetime.
For experiment [3] the target is unchanged. Nature of the experiment: FRET or BRET; FRET by single-photon multi-frequency domain FLIM; cell-free assay, demembranated sperm nuclei decondensed in fertilised egg extract (S10) with ATP-GS, no GTP; fixed, labelled with anti-PLCγ-OG488 (donor) and anti-SFK1-Alexa 546 (acceptor).

In experiment [1], phospholipase Cγ (PLCγ) (enzyme) showed an FRET efficiency % (MPN ROI) of 4.8% and an FRET efficiency % (egg ROI) of 5.3%. Besides, the FRET efficiency % (egg ROI) in experiment [2] came out at 18.9%. This substance also had an FRET efficiency in experiment [3] of 5.7%.

These data come from publication PMC3404105.
